Data from patent US20210380994A1, “LACTOCOCCUS LACTIS EXPRESSION SYSTEM FOR DELIVERING PROTEINS EFFICACIOUS FOR THE TREATMENT OF EPITHELIAL BARRIER FUNCTION DISORDERS” (Second Genome, Inc., priority 2018, published 2021).
Like-named read-outs stand apart in the source and are kept apart here.

Key:
[1] = test system: HCT8 enterocyte and HT29-MTX goblet cell lines; experiment: Oris Cell Migration assay (epithelial cell wound healing); format: cell-based, human; conditions: 48 hours; SG-11 1 μg/ml, EGF 30 ng/ml, staurosporine 100 nM; FIG. 2
Text: The 96 well Oris Cell Migration assay containing plugs preventing cell attachment in the center of each well was used according to the manufacturer's instructions (Platypus Technologies. Madison, Wis.).
The migration assay plates were warmed to room temperature prior to use and plugs were removed rom 100% confluence wells prior to cell addition. The HCT8 enterocyte and HT29-MTX goblet cell lines were used at a 9:1 ratio with a total of 5×10^4 total cells added per well (4.5×10^4 HCT8 cells and 0.5×10^4 HT29-MTX cells). Cells were incubated at 37° C.+5% CO2 for 24 hours. Plugs were then removed from all control and sample wells. Control wells included cells treated with the diluent vehicle as the blank, 30 ng/ml epidermal growth factor (EGF) as the positive control, and 100 nM staurosporine as the negative control, all diluted in cRPMI. Sample wells contained SG-11 protein (SEQ ID NO:9) at a concentration of 1 μg/ml diluted in eRPMI. 100% and 0% wells were cultured in cRPMI. […] The green fluorescent viability dye Calcenin AM was added to all wells at a concentration of 0.5 μg/min PBS containing 0.9 mM CaCl2 and 0.5 mM MgCl2, incubated for 30 min at 37° C.+5% CO2, the dye was removed and cells were washed in PBS containing 0.9 mM CaCl2 and 0.5 mM MgCl2, and fluorescence was measured. […] Samples were normalized between 100% and 0% samples and values expressed as a percent growth.

[2] = for Carbamidomethy C147, VDGEICYVSCQNVK (SEQ ID NO: 18) / Carbamidomethy C151, VDGEICYVSCQNVK (SEQ ID NO: 18): artificial carbamidomethylation by iodoacetamide

B1: SG-11: Roseburia hominis protein comprising SEQ ID NO:3; tested as SEQ ID NO:5, SEQ ID NO:7 or FLAG-tagged SEQ ID NO:9 (protein, listed as Rosburia hominis)
chain: LEGEESVVYVGKKGVIASLDVETLDQSYYDETELKSYVDAEVEDYTAEHGKNAVKVESLKVEDGVAKLKMKYKTPEDYTAFNGIELYQGKVVASLAAGYVYDGEFARVEEGKVVGAATKQDIYSEDDLKVAIIRANTDVKVDGEICYVSCQNVKLTGKDSVSIRDGYYLETGSVTASVDVTGQESVGTEQLSGTEQMEMTGEPVNADDTEQTEAAAGDGSFETDVYTFIVYK
percent growth (epithelial cell wound healing) [1]: significant increase in growth
aggregates (SEC-HPLC) ([2]; 4° C., 2 weeks, 1 mg/ml): low level of aggregates
aggregation (SEC-HPLC) ([2]; 37° C., 2 weeks, 1 mg/ml): major aggregation occurred
Deamdation N206, GYYLETGSV...TFIVYK (SEQ ID NO: 29) ([2]; 40° C. for two weeks): 3.62%
Deamidation N83, TPEDYTAFNGIELYQGX (SEQ ID NO: 26) ([2]; 40° C. for two weeks): 99.88%
Deamidation N83 Deamidation Q89, TPEDYTAFNGIELYQGX (SEQ ID NO: 26) ([2]; 40° C. for two weeks): 0.12%
Deamidation N137, ANTDVK (SEQ ID NO: 27) ([2]; 40° C. for two weeks): 14.61%
Deamidation N153, VDGEICYVSCQNVK (SEQ ID NO: 18) ([2]; 40° C. for two weeks): 0%
Deamidation Q30, GVIASLDVETLDQSYYDETELK (SEQ ID NO: 25) ([2]; 40° C. for two weeks): 0.09%
Deamidation Q152 Deamidation N153 Carbamidomethy C151, VDGEICYVSCQNVK (SEQ ID NO: 18) ([2]; 40° C. for two weeks): 3.1%
No modification, ANTDVK (SEQ ID NO: 27) ([2]; 40° C. for two weeks): 85.39%
No modification, GVIASLDVETLDQSYYDETELK (SEQ ID NO: 25) ([2]; 40° C. for two weeks): 99.91%
No modification, GYYLETGSVTASVDVTGQESVGTEQLSGTEQMEMTGEPVNADDTEQTEAAAGDGSFETDVYTFIVYK (SEQ ID NO: 29) ([2]; 40° C. for two weeks): 96.38%
No modification, MLEGEESVVYVGK (SEQ ID NO: 24) ([2]; 40° C. for two weeks): 99.82%
No modification, TPEDYTAFNGIELYQGX (SEQ ID NO: 26) ([2]; 40° C. for two weeks): 0%
No modification, VDGEICYVSCQNVK (SEQ ID NO: 18) ([2]; 40° C. for two weeks): 44.85%
Oxidation M2.00, GYYLETGSV...TFIVYK (SEQ ID NO: 29) ([2]; 40° C. for two weeks): 0%
Oxidation M198, GYYLETGSV...TFIVYK (SEQ ID NO: 29) ([2]; 40° C. for two weeks): 0%
Oxidation of M, MLEGEESVVYVGK (SEQ ID NO: 24) ([2]; 40° C. for two weeks): 0.18%
Carbamidomethy C147, VDGEICYVSCQNVK (SEQ ID NO: 18) ([2]; 40° C. for two weeks): 33.59%
Carbamidomethy C151, VDGEICYVSCQNVK (SEQ ID NO: 18) ([2]; 40° C. for two weeks): 18.45%
Observation of solution ([2]; Freeze and thaw (6 cycles) −80° C. to room temperature): clear
Observation of solution ([2]; Mechanical stress: 350 rpm shake, 4° C., 24 hr): clear
Deamdation N206, GYYLETGSV...TFIVYK (SEQ ID NO: 29) ([2]; No treatment): 0%
Deamidation N53, NAVK (SEQ ID NO 30) ([2]; No treatment): 7.84%
Deamidation N83, TPEDYTAFNGIELYQGX (SEQ ID NO: 26) ([2]; No treatment): 17.43%
Deamidation N83 Deamidation Q89, TPEDYTAFNGIELYQGX (SEQ ID NO: 26) ([2]; No treatment): 0%
Deamidation N137, ANTDVK (SEQ ID NO: 27) ([2]; No treatment): 1.04%
Deamidation N153, VDGEICYVSCQNVK (SEQ ID NO: 18) ([2]; No treatment): 0.02%
Deamidation Q30, GVIASLDVETLDQSYYDETELK (SEQ ID NO: 25) ([2]; No treatment): 0%
Deamidation Q152 Deamidation N153 Carbamidomethy C151, VDGEICYVSCQNVK (SEQ ID NO: 18) ([2]; No treatment): 0%
No modification, ANTDVK (SEQ ID NO: 27) ([2]; No treatment): 98.96%
No modification, GVIASLDVETLDQSYYDETELK (SEQ ID NO: 25) ([2]; No treatment): 100%
No modification, GYYLETGSV...TFIVYK (SEQ ID NO: 29) ([2]; No treatment): 100%
No modification, MLEGEESVVYVGK (SEQ ID NO: 24) ([2]; No treatment): 99.78%
No modification, TPEDYTAFNGIELYQGX (SEQ ID NO: 26) ([2]; No treatment): 82.57%
No modification, VDGEICYVSCQNVK (SEQ ID NO: 18) ([2]; No treatment): 99.98%
Oxidation M2.00, GYYLETGSV...TFIVYK (SEQ ID NO: 29) ([2]; No treatment): 0%
Oxidation M198, GYYLETGSV...TFIVYK (SEQ ID NO: 29) ([2]; No treatment): 0%
Oxidation of M, MLEGEESVVYVGK (SEQ ID NO: 24) ([2]; No treatment): 0.22%
Deamdation N206, GYYLETGSV...TFIVYK (SEQ ID NO: 29) ([2]; Oxidation (H2O2)): 0%
Deamidation N83, TPEDYTAFNGIELYQGX (SEQ ID NO: 26) ([2]; Oxidation (H2O2)): 37%
Deamidation N83 Deamidation Q89, TPEDYTAFNGIELYQGX (SEQ ID NO: 26) ([2]; Oxidation (H2O2)): 0%
Deamidation N137, ANTDVK (SEQ ID NO: 27) ([2]; Oxidation (H2O2)): 16.44%
Deamidation N153, VDGEICYVSCQNVK (SEQ ID NO: 18) ([2]; Oxidation (H2O2)): 0%
Deamidation Q30, GVIASLDVETLDQSYYDETELK (SEQ ID NO: 25) ([2]; Oxidation (H2O2)): 0.07%
Deamidation Q152 Deamidation N153 Carbamidomethy C151, VDGEICYVSCQNVK (SEQ ID NO: 18) ([2]; Oxidation (H2O2)): 0.31%
No modification, ANTDVK (SEQ ID NO: 27) ([2]; Oxidation (H2O2)): 83.56%
No modification, GVIASLDVETLDQSYYDETELK (SEQ ID NO: 25) ([2]; Oxidation (H2O2)): 99.93%
No modification, GYYLETGSV...TFIVYK (SEQ ID NO: 29) ([2]; Oxidation (H2O2)): 19.17%
No modification, MLEGEESVVYVGK (SEQ ID NO: 24) ([2]; Oxidation (H2O2)): 99.88%
No modification, TPEDYTAFNGIELYQGX (SEQ ID NO: 26) ([2]; Oxidation (H2O2)): 63%
No modification, VDGEICYVSCQNVK (SEQ ID NO: 18) ([2]; Oxidation (H2O2)): 63.23%
Oxidation M2.00, GYYLETGSV...TFIVYK (SEQ ID NO: 29) ([2]; Oxidation (H2O2)): 63.9%
Oxidation M198, GYYLETGSV...TFIVYK (SEQ ID NO: 29) ([2]; Oxidation (H2O2)): 16.92%
Oxidation of M, MLEGEESVVYVGK (SEQ ID NO: 24) ([2]; Oxidation (H2O2)): 0.12%
Carbamidomethy C147, VDGEICYVSCQNVK (SEQ ID NO: 18) ([2]; Oxidation (H2O2)): 34.52%
Carbamidomethy C151, VDGEICYVSCQNVK (SEQ ID NO: 18) ([2]; Oxidation (H2O2)): 1.93%
Observation of solution ([2]; Oxidation: Hydroperoxide (0.005%) 40° C., 16 hr): clear
Observation of solution ([2]; Temperature (2 weeks) 4° C.): clear
Observation of solution ([2]; Temperature (2 weeks) 25° C.): clear
Observation of solution ([2]; Temperature (2 weeks) 37° C.): clear
Observation of solution ([2]; Temperature (2 weeks) 40° C.): clear
Observation of solution ([2]; pH 4 and pH 9): clear
Deamdation N206, GYYLETGSV...TFIVYK (SEQ ID NO: 29) ([2]; pH 9): 11.84%
Deamidation N83, TPEDYTAFNGIELYQGX (SEQ ID NO: 26) ([2]; pH 9): 19.1%
Deamidation N83 Deamidation Q89, TPEDYTAFNGIELYQGX (SEQ ID NO: 26) ([2]; pH 9): 0%
Deamidation N137, ANTDVK (SEQ ID NO: 27) ([2]; pH 9): 23.95%
Deamidation N153, VDGEICYVSCQNVK (SEQ ID NO: 18) ([2]; pH 9): 0.35%
Deamidation Q30, GVIASLDVETLDQSYYDETELK (SEQ ID NO: 25) ([2]; pH 9): 0.05%
Deamidation Q152 Deamidation N153 Carbamidomethy C151, VDGEICYVSCQNVK (SEQ ID NO: 18) ([2]; pH 9): 28%
No modification, ANTDVK (SEQ ID NO: 27) ([2]; pH 9): 76.05%
No modification, GVIASLDVETLDQSYYDETELK (SEQ ID NO: 25) ([2]; pH 9): 99.95%
No modification, GYYLETGSV...TFIVYK (SEQ ID NO: 29) ([2]; pH 9): 88.16%
No modification, MLEGEESVVYVGK (SEQ ID NO: 24) ([2]; pH 9): 99.94%
No modification, TPEDYTAFNGIELYQGX (SEQ ID NO: 26) ([2]; pH 9): 80.9%
No modification, VDGEICYVSCQNVK (SEQ ID NO: 18) ([2]; pH 9): 8.76%
Oxidation M2.00, GYYLETGSV...TFIVYK (SEQ ID NO: 29) ([2]; pH 9): 0%
Oxidation M198, GYYLETGSV...TFIVYK (SEQ ID NO: 29) ([2]; pH 9): 0%
Oxidation of M, MLEGEESVVYVGK (SEQ ID NO: 24) ([2]; pH 9): 0.61%
Carbamidomethy C147, VDGEICYVSCQNVK (SEQ ID NO: 18) ([2]; pH 9): 71.71%
Carbamidomethy C151, VDGEICYVSCQNVK (SEQ ID NO: 18) ([2]; pH 9): 12.45%
